{"source": "paper PMC7018833", "about": "“Siroheme synthase orients substrates for dehydrogenase and chelatase activities in a common active site” (Nature Communications, 2020)", "proteins": {"B1": {"name": "S128A S. enterica siroheme synthase (CysG) (enzyme)", "chain": "MDHLPIFCQLRDRDCLIVGGGDVAERKARLLLEAGARLTVNALTFIPQFTVWANEGMLTLVEGPFDETLLDSCWLAIAATDDDTVNQRVSDAAESRRIFCNVVDAPKAASFIMPSIIDRSPLMVAVSAGGTSPVLARLLREKLESLLPQHLGQVARYAGQLRARVKKQFATMGERRRFWEKFFVNDRLAQSLANADEKAVNATTERLFSEPLDHRGEVVLVGAGPGDAGLLTLKGLQQIQQADIVVYDRLVSDDIMNLVRRDADRVFVGKRAGYHCVPQEEINQILLREAQKGKRVVRLKGGDPFIFGRGGEELETLCHAGIPFSVVPGITAASGCSAYSGIPLTHRDYAQSVRLVTGHLKTGGELDWENLAAEKQTLVFYMGLNQAATIQEKLIAFGMQADMPVALVENGTSVKQRVVHGVLTQLGELAQQVESPALIIVGRVVALRDKLNWFSNH", "notes": "also called S128A-CysG; source: E. coli LMG194 (pBAD vector), purified (Ni-NTA, anion-exchange, size exclusion chromatography)"}, "B2": {"name": "P133G/S128A CysG (enzyme)", "chain": "MDHLPIFCQLRDRDCLIVGGGDVAERKARLLLEAGARLTVNALTFIPQFTVWANEGMLTLVEGPFDETLLDSCWLAIAATDDDTVNQRVSDAAESRRIFCNVVDAPKAASFIMPSIIDRSPLMVAVSAGGTSGVLARLLREKLESLLPQHLGQVARYAGQLRARVKKQFATMGERRRFWEKFFVNDRLAQSLANADEKAVNATTERLFSEPLDHRGEVVLVGAGPGDAGLLTLKGLQQIQQADIVVYDRLVSDDIMNLVRRDADRVFVGKRAGYHCVPQEEINQILLREAQKGKRVVRLKGGDPFIFGRGGEELETLCHAGIPFSVVPGITAASGCSAYSGIPLTHRDYAQSVRLVTGHLKTGGELDWENLAAEKQTLVFYMGLNQAATIQEKLIAFGMQADMPVALVENGTSVKQRVVHGVLTQLGELAQQVESPALIIVGRVVALRDKLNWFSNH", "notes": "source: E. coli LMG194 (pBAD vector), purified (Ni-NTA, anion-exchange, size exclusion chromatography)"}, "B3": {"name": "R261A/S128A CysG (enzyme)", "chain": "MDHLPIFCQLRDRDCLIVGGGDVAERKARLLLEAGARLTVNALTFIPQFTVWANEGMLTLVEGPFDETLLDSCWLAIAATDDDTVNQRVSDAAESRRIFCNVVDAPKAASFIMPSIIDRSPLMVAVSAGGTSPVLARLLREKLESLLPQHLGQVARYAGQLRARVKKQFATMGERRRFWEKFFVNDRLAQSLANADEKAVNATTERLFSEPLDHRGEVVLVGAGPGDAGLLTLKGLQQIQQADIVVYDRLVSDDIMNLVRADADRVFVGKRAGYHCVPQEEINQILLREAQKGKRVVRLKGGDPFIFGRGGEELETLCHAGIPFSVVPGITAASGCSAYSGIPLTHRDYAQSVRLVTGHLKTGGELDWENLAAEKQTLVFYMGLNQAATIQEKLIAFGMQADMPVALVENGTSVKQRVVHGVLTQLGELAQQVESPALIIVGRVVALRDKLNWFSNH", "notes": "as for B2"}, "B4": {"name": "D262A/S128A CysG (enzyme)", "chain": "MDHLPIFCQLRDRDCLIVGGGDVAERKARLLLEAGARLTVNALTFIPQFTVWANEGMLTLVEGPFDETLLDSCWLAIAATDDDTVNQRVSDAAESRRIFCNVVDAPKAASFIMPSIIDRSPLMVAVSAGGTSPVLARLLREKLESLLPQHLGQVARYAGQLRARVKKQFATMGERRRFWEKFFVNDRLAQSLANADEKAVNATTERLFSEPLDHRGEVVLVGAGPGDAGLLTLKGLQQIQQADIVVYDRLVSDDIMNLVRRAADRVFVGKRAGYHCVPQEEINQILLREAQKGKRVVRLKGGDPFIFGRGGEELETLCHAGIPFSVVPGITAASGCSAYSGIPLTHRDYAQSVRLVTGHLKTGGELDWENLAAEKQTLVFYMGLNQAATIQEKLIAFGMQADMPVALVENGTSVKQRVVHGVLTQLGELAQQVESPALIIVGRVVALRDKLNWFSNH", "notes": "as for B2"}, "B5": {"name": "P133H/S128A CysG (enzyme)", "chain": "MDHLPIFCQLRDRDCLIVGGGDVAERKARLLLEAGARLTVNALTFIPQFTVWANEGMLTLVEGPFDETLLDSCWLAIAATDDDTVNQRVSDAAESRRIFCNVVDAPKAASFIMPSIIDRSPLMVAVSAGGTSHVLARLLREKLESLLPQHLGQVARYAGQLRARVKKQFATMGERRRFWEKFFVNDRLAQSLANADEKAVNATTERLFSEPLDHRGEVVLVGAGPGDAGLLTLKGLQQIQQADIVVYDRLVSDDIMNLVRRDADRVFVGKRAGYHCVPQEEINQILLREAQKGKRVVRLKGGDPFIFGRGGEELETLCHAGIPFSVVPGITAASGCSAYSGIPLTHRDYAQSVRLVTGHLKTGGELDWENLAAEKQTLVFYMGLNQAATIQEKLIAFGMQADMPVALVENGTSVKQRVVHGVLTQLGELAQQVESPALIIVGRVVALRDKLNWFSNH", "notes": "as for B2"}, "B6": {"name": "D262N/S128A CysG (enzyme)", "chain": "MDHLPIFCQLRDRDCLIVGGGDVAERKARLLLEAGARLTVNALTFIPQFTVWANEGMLTLVEGPFDETLLDSCWLAIAATDDDTVNQRVSDAAESRRIFCNVVDAPKAASFIMPSIIDRSPLMVAVSAGGTSPVLARLLREKLESLLPQHLGQVARYAGQLRARVKKQFATMGERRRFWEKFFVNDRLAQSLANADEKAVNATTERLFSEPLDHRGEVVLVGAGPGDAGLLTLKGLQQIQQADIVVYDRLVSDDIMNLVRRNADRVFVGKRAGYHCVPQEEINQILLREAQKGKRVVRLKGGDPFIFGRGGEELETLCHAGIPFSVVPGITAASGCSAYSGIPLTHRDYAQSVRLVTGHLKTGGELDWENLAAEKQTLVFYMGLNQAATIQEKLIAFGMQADMPVALVENGTSVKQRVVHGVLTQLGELAQQVESPALIIVGRVVALRDKLNWFSNH", "notes": "as for B2"}, "B7": {"name": "R260A/S128A CysG (enzyme)", "chain": "MDHLPIFCQLRDRDCLIVGGGDVAERKARLLLEAGARLTVNALTFIPQFTVWANEGMLTLVEGPFDETLLDSCWLAIAATDDDTVNQRVSDAAESRRIFCNVVDAPKAASFIMPSIIDRSPLMVAVSAGGTSPVLARLLREKLESLLPQHLGQVARYAGQLRARVKKQFATMGERRRFWEKFFVNDRLAQSLANADEKAVNATTERLFSEPLDHRGEVVLVGAGPGDAGLLTLKGLQQIQQADIVVYDRLVSDDIMNLVARDADRVFVGKRAGYHCVPQEEINQILLREAQKGKRVVRLKGGDPFIFGRGGEELETLCHAGIPFSVVPGITAASGCSAYSGIPLTHRDYAQSVRLVTGHLKTGGELDWENLAAEKQTLVFYMGLNQAATIQEKLIAFGMQADMPVALVENGTSVKQRVVHGVLTQLGELAQQVESPALIIVGRVVALRDKLNWFSNH", "notes": "as for B2"}, "B8": {"name": "D104A/S128A CysG (enzyme)", "chain": "MDHLPIFCQLRDRDCLIVGGGDVAERKARLLLEAGARLTVNALTFIPQFTVWANEGMLTLVEGPFDETLLDSCWLAIAATDDDTVNQRVSDAAESRRIFCNVVAAPKAASFIMPSIIDRSPLMVAVSAGGTSPVLARLLREKLESLLPQHLGQVARYAGQLRARVKKQFATMGERRRFWEKFFVNDRLAQSLANADEKAVNATTERLFSEPLDHRGEVVLVGAGPGDAGLLTLKGLQQIQQADIVVYDRLVSDDIMNLVRRDADRVFVGKRAGYHCVPQEEINQILLREAQKGKRVVRLKGGDPFIFGRGGEELETLCHAGIPFSVVPGITAASGCSAYSGIPLTHRDYAQSVRLVTGHLKTGGELDWENLAAEKQTLVFYMGLNQAATIQEKLIAFGMQADMPVALVENGTSVKQRVVHGVLTQLGELAQQVESPALIIVGRVVALRDKLNWFSNH", "notes": "as for B2"}, "B9": {"name": "D104N/S128A CysG (enzyme)", "chain": "MDHLPIFCQLRDRDCLIVGGGDVAERKARLLLEAGARLTVNALTFIPQFTVWANEGMLTLVEGPFDETLLDSCWLAIAATDDDTVNQRVSDAAESRRIFCNVVNAPKAASFIMPSIIDRSPLMVAVSAGGTSPVLARLLREKLESLLPQHLGQVARYAGQLRARVKKQFATMGERRRFWEKFFVNDRLAQSLANADEKAVNATTERLFSEPLDHRGEVVLVGAGPGDAGLLTLKGLQQIQQADIVVYDRLVSDDIMNLVRRDADRVFVGKRAGYHCVPQEEINQILLREAQKGKRVVRLKGGDPFIFGRGGEELETLCHAGIPFSVVPGITAASGCSAYSGIPLTHRDYAQSVRLVTGHLKTGGELDWENLAAEKQTLVFYMGLNQAATIQEKLIAFGMQADMPVALVENGTSVKQRVVHGVLTQLGELAQQVESPALIIVGRVVALRDKLNWFSNH", "notes": "as for B2"}}}
{"target": "the molecule itself", "assay": "crystal structure"}
{"protein": "B1", "binding result": "binds"}
{"protein": "B2", "binding result": "binds"}
{"protein": "B3", "binding result": "binds"}
{"protein": "B4", "binding result": "binds"}
{"protein": "B5", "binding result": "binds"}
{"protein": "B6", "binding result": "binds"}
{"protein": "B7", "binding result": "binds"}
{"protein": "B8", "binding result": "binds"}
{"protein": "B9", "binding result": "binds"}
